{"source": "patent US9133449B2", "about": "“Mutant pyrrolysyl-tRNA synthetase, and method for production of protein having non-natural amino acid integrated therein by using the same” (priority 2007, dated 2015)", "molecules": {"B1": {"name": "PylRS(c270) mutant (Y306A) (protein, UniProt Q8PWY1 185-454, looked up, variant Y306A)", "chain": "ASAPALTKSQTDRLEVLLNPKDEISLNSGKPFRELESELLSRRKKDLQQIYAEERENYLGKLEREITRFFVDRGFLEIKSPILIPLEYIERMGIDNDTELSKQIFRVDKNFCLRPMLAPNLANYLRKLDRALPDPIKIFEIGPCYRKESDGKEHLEEFTMLNFCQMGSGCTRENLESIITDFLNHLGIDFKIVGDSCMVYGDTLDVMHGDLELSSAVVGPIPLDREWGIDKPWIGAGFGLERLLKVKHDFKNIKRAARSESYYNGISTNL"}, "B2": {"name": "PylRS mutant (Y384F) (protein, UniProt Q8PWY1 1-454, looked up, variant Y384F)", "Pyrrolysine--tRNA ligase": "MDKKPLNTLISATGLWMSRTGTIHKIKHHEVSRSKIYIEMACGDHLVVNNSRSSRTARALRHHKYRKTCKRCRVSDEDLNKFLTKANEDQTSVKVKVVSAPTRTKKAMPKSVARAPKPLENTEAAQAQPSGSKFSPAIPVSTQESVSVPASVSTSISSISTGATASALVKGNTNPITSMSAPVQASAPALTKSQTDRLEVLLNPKDEISLNSGKPFRELESELLSRRKKDLQQIYAEERENYLGKLEREITRFFVDRGFLEIKSPILIPLEYIERMGIDNDTELSKQIFRVDKNFCLRPMLAPNLYNYLRKLDRALPDPIKIFEIGPCYRKESDGKEHLEEFTMLNFCQMGSGCTRENLESIITDFLNHLGIDFKIVGDSCMVFGDTLDVMHGDLELSSAVVGPIPLDREWGIDKPWIGAGFGLERLLKVKHDFKNIKRAARSESYYNGISTNL"}, "B3": {"name": "PylRS(c270): M. mazei PylRS of which the 184 amino acids from the N terminus were truncated (protein, UniProt Q8PWY1 185-454, looked up, fragment)", "chain": "B1 chain with A122Y"}}, "key": {"[1]": {"tested_on": "tRNA^Pyl", "test": "Aminoacylation assay of PylRS mutants / PylRS(c270)", "assay_type": "biochemical, Methanosarcina mazei", "description": "The full length PylRS mutant was overexpressed in E. coli cells, and then purified using HisTrap column (Amersham Biosciences Inc.). Aminoacylation reaction was performed at ca. 37 degrees Celsius for 1 h. The reaction solution for aminoacylation comprises 2.83 μM of purified PylRS derived from M. mazei (or 9 μM of PylRS (c270)), 10 mM of MgCl2, 2 mM of ATP, 4 mM of DTT, 2.11 μM of transcript of M. mazei-derived tRNA^Pyl, and adequate amount of concentrated solution of a variety of amino acids dissolved in 100 mM of HEPES buffer (pH 7.2). Acid-urea polyacrylamide gel electrophoresis was used to analyze whether tRNA had been aminoacylated or not."}, "[2]": {"tested_on": "amber stop codon in the chloramphenicol acetyltransferase (CAT) gene, E. coli DH10B cells", "test": "Positive selection by suppression of amber stop codon in CAT gene (chloramphenicol resistance)", "assay_type": "cell-based", "description": "The PylRS mutant library was first subjected to a positive selection based on suppression of an amber stop codon located at a nonessential position in the chloramphenicol acetyltransferase (CAT) gene. […] Then the surviving cells were grown in the presence of chloramphenicol and the absence of Boc-Lys."}}, "note": "Where a chain is given by its changes, count along the chain named. In names and notes the source's numbering stands."}
{"molecule": "B1", "values": [{"measurement": "esterification of tRNA^Pyl with Z-Lys", "setting": "[1]; substrate Z-Lys, compared with wild-type PylRS", "result": "much more efficiently than the wild-type PylRS"}]}
{"molecule": "B2", "values": [{"measurement": "concentration of chloramphenicol at which cells survived", "setting": "[2]; in the absence of Boc-Lys", "result": "less than 25 μg/ml"}, {"measurement": "concentration of chloramphenicol at which cells survived", "setting": "[2]; in the presence of Boc-Lys (1 mM)", "result": 150, "unit": "µg/mL"}]}
{"molecule": "B3", "values": [{"measurement": "aminoacylation activity with pyrrolysine", "setting": "[1]; substrate pyrrolysine", "result": "may esterify"}]}
